# B1: T-lymphocyte surface antigen Ly-9 (Homo sapiens), Q9HBG7 (parent)
# chain: MVAPKSHTDDWAPGPFSSKPQRSQLQIFSSVLQTSLLFLLMGLRASGKDSAPTVVSGILGGSVTLPLNISVDTEIENVIWIGPKNALAFARPKENVTIMVKSYLGRLDITKWSYSLCISNLTLNDAGSYKAQINQRNFEVTTEEEFTLFVYEQLQEPQVTMKSVKVSENFSCNITLMCSVKGAEKSVLYSWTPREPHASESNGGSILTVSRTPCDPDLPYICTAQNPVSQRSSLPVHVGQFCTDPGASRGGTTGETVVGVLGEPVTLPLALPACRDTEKVVWLFNTSIISKEREEAATADPLIKSRDPYKNRVWVSSQDCSLKISQLKIEDAGPYHAYVCSEASSVTSMTHVTLLIYRRLRKPKITWSLRHSEDGICRISLTCSVEDGGNTVMYTWTPLQKEAVVSQGESHLNVSWRSSENHPNLTCTASNPVSRSSHQFLSENICSGPERNTKLWIGLFLMVCLLCVGIFSWCIWKRKGRCSVPAFCSSQAEAPADTPEPTAGHTLYSVLSQGYEKLDTPLRPARQQPTPTSDSSSDSNLTTEEDEDRPEVHKPISGRYEVFDQVTQEGAGHDPAPEGQADYDPVTPYVTEVESVVGENTMYAQVFNLQGKTPVSQKEESSATIYCSIRKPQVVPPPQQNDLEIPESPTYENFT
# partner: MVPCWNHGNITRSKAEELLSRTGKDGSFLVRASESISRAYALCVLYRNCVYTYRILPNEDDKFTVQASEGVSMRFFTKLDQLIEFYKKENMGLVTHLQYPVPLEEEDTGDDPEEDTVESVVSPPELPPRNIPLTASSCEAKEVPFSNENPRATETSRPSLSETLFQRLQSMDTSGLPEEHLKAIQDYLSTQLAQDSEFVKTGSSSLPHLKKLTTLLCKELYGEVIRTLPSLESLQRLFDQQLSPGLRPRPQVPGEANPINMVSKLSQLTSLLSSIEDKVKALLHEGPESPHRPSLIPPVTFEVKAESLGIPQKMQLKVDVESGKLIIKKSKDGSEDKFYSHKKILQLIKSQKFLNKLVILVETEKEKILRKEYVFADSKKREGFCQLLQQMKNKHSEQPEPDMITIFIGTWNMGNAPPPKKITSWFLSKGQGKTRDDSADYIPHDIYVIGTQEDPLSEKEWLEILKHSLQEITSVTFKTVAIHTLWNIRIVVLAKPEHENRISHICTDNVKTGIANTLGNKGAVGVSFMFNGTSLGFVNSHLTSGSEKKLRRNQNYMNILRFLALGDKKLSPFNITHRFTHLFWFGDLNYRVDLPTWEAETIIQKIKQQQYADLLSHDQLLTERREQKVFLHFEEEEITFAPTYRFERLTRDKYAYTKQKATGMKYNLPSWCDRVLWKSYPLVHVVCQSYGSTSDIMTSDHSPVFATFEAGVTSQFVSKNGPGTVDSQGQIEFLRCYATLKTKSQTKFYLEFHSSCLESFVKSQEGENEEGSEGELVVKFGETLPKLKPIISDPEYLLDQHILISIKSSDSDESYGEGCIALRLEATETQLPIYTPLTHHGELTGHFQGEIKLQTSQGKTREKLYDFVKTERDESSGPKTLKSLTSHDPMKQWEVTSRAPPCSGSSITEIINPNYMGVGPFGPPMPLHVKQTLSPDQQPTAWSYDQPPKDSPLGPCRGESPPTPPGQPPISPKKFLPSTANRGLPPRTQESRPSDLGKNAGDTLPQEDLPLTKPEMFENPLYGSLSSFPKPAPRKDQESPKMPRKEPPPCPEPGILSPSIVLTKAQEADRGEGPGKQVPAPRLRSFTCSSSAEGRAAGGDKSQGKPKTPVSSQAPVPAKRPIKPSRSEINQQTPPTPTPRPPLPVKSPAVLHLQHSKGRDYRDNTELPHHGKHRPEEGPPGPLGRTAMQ
# B2: T-lymphocyte surface antigen Ly-9 (Homo sapiens), Q9HBG7 (parent)
# chain: B1 chain
# partner: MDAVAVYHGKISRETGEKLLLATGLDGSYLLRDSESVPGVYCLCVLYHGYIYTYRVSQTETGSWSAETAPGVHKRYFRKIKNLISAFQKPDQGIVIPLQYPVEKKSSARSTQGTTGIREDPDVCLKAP
# Variants of: B1
# Conditions: with ship1_human INPP5D
row,Variant,effect of a mutation on the interaction
1,M602V,decreasing interaction

# Variants of: B2
# Conditions: with sh21a_human SH2D1A
row,Variant,effect of a mutation on the interaction
1,M602V,decreasing interaction
